Experimental data taken from the RNAGym collection of RNA variant scans (doi:10.7554/elife.80360).

B1: CPEB3 Ribozyme (parent)
chain: GGGGGCCACAGCAGAAGCGUUCACGUCGCGGCCCCUGUCAGAUUCUGGUGAAUCUGCGAAUUCUGCUGU

Variants of: B1
Experiment: self-cleavage, relative activity (ratio to wild type); higher = more cleavage; co-transcriptional
G11C G58C showed a self-cleavage of 0.751. G11C G58U gave a self-cleavage of 0.896. In the case of A10G U61A, the self-cleavage is reported as 0.6. Work on A10G U38G yielded a self-cleavage of 0.182. Work on A10G U38A yielded a self-cleavage of 0.784. A10G U38C showed a self-cleavage of 0.906. Work on A10G C66A yielded a self-cleavage of 0.385. In the case of G11A A40G, the self-cleavage is reported as 0.726. Work on G11A A40U yielded a self-cleavage of 0.357. Work on G11U G14A yielded a self-cleavage of 0.131. For G11C C27G, the self-cleavage was 0.104. G11C C24G showed a self-cleavage of 0.114. Variant G11A C45U has a self-cleavage of 0.906. With G11A C45A the self-cleavage was 0.821. A10U U36C gave a self-cleavage of 0.924. With A10U U36G the self-cleavage was 0.195. In the case of A10U A51G, the self-cleavage is reported as 0.955. Variant A10U A51U has a self-cleavage of 1.04. Variant G11C G48U has a self-cleavage of 0.912. For G11U C34A, the self-cleavage was 0.694. With G11C U44G the self-cleavage was 0.662. G11C U44C showed a self-cleavage of 0.459. Variant G11C C63U has a self-cleavage of 0.416. A10G C29U showed a self-cleavage of 0.126. A10G C29A showed a self-cleavage of 0.324. Work on G11C U43G yielded a self-cleavage of 0.279. A10U A13U gave a self-cleavage of 0.701. A10U A13G showed a self-cleavage of 0.56. Work on A10U C12U yielded a self-cleavage of 0.913. Variant A10U C12A has a self-cleavage of 0.707. Variant G11A G19A has a self-cleavage of 0.103. For G11A G50A, the self-cleavage was 0.852. Variant C12A A51C has a self-cleavage of 0.544. In the case of C12A A51U, the self-cleavage is reported as 0.628. With G11U A51C the self-cleavage was 0.669. With A10G U26C the self-cleavage was 0.351. Variant A10G U26G has a self-cleavage of 0.877. Variant A10G U26A has a self-cleavage of 0.933. In the case of G11C U49C, the self-cleavage is reported as 0.803. Work on G11C U49G yielded a self-cleavage of 0.866. G11A C33A showed a self-cleavage of 0.853. Work on A10U G56A yielded a self-cleavage of 1.01. With A10U G56U the self-cleavage was 0.984. Work on G11C G50C yielded a self-cleavage of 0.748. For A10U A52U, the self-cleavage was 1.02. With G11U U55A the self-cleavage was 0.36. G11U U55C gave a self-cleavage of 0.302. In the case of A10U G31A, the self-cleavage is reported as 0.976. In the case of A10U G31U, the self-cleavage is reported as 0.895. A10U A40G gave a self-cleavage of 0.951. G11C G68U gave a self-cleavage of 0.881. With G11U A40U the self-cleavage was 0.256. In the case of G11A A59C, the self-cleavage is reported as 0.3. Variant G11A A59G has a self-cleavage of 0.859. With A10U U64G the self-cleavage was 0.897. With A10U U64A the self-cleavage was 0.8. A10C U62A gave a self-cleavage of 0.926. In the case of G11A A52G, the self-cleavage is reported as 0.928. With C12A C45U the self-cleavage was 0.72. Work on G11A U53A yielded a self-cleavage of 0.533. Work on A10U G68A yielded a self-cleavage of 1.05. With A10U G68U the self-cleavage was 0.982. G11A C27A gave a self-cleavage of 0.2. In the case of G11A C27G, the self-cleavage is reported as 0.139. G11A C27U gave a self-cleavage of 0.107. With G11C G56C the self-cleavage was 0.176. G11U U36A gave a self-cleavage of 0.164. Work on G11U G48U yielded a self-cleavage of 0.939. Variant G11U G48A has a self-cleavage of 0.917. Variant G11C G25U has a self-cleavage of 0.0946. A10U U53C showed a self-cleavage of 0.871. For G11C U21A, the self-cleavage was 0.827. Work on A10U U55C yielded a self-cleavage of 0.9. G11U U64G gave a self-cleavage of 0.447. With G11U U64C the self-cleavage was 0.498. G11U C63A gave a self-cleavage of 0.418. In the case of G11C A42C, the self-cleavage is reported as 0.151. With G11A G28U the self-cleavage was 0.171. In the case of G11A G28A, the self-cleavage is reported as 0.16. For G11A G28C, the self-cleavage was 0.157. G11A G56C showed a self-cleavage of 0.437. G11A G31A showed a self-cleavage of 0.838. With G11C A23G the self-cleavage was 0.626. Work on G11C A23C yielded a self-cleavage of 0.672.
